Laboratory results: article PMC2704923

Columns and labels:
[1] = molecular target: H3^CATD mononucleosome, reconstituted with alpha-satellite DNA; assay: native gel or EMSA
CENP-N (Homo sapiens) = assay: EMSA
[2] = system: CENP-N K15A (Homo sapiens); assay: EMSA
[3] = system: CENP-N R124A (Homo sapiens); assay: EMSA

CENP-N (wildtype), 35S-labelled, in vitro translated, sequence (Q96H22 whole entry): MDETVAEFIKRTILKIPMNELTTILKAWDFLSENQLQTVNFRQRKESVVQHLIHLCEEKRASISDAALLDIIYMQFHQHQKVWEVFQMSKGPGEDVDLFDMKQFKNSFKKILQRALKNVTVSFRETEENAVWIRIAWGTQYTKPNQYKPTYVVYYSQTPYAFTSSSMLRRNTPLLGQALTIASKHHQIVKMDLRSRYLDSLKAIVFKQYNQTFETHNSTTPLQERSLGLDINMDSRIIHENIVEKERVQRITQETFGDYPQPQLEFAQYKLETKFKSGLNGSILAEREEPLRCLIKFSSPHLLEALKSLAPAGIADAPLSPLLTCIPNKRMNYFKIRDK

CENP-N (wildtype), 35S-labelled, in vitro translated (from UniProt Q96H22 1-339) (natural protein)
Kd [1]: 163 nM

H3CATD nucleosome, alpha-satellite
Kd (CENP-N (Homo sapiens)): 163 nM

CENP-A nucleosome, alpha-satellite
Kd [2]: 297 nM
Kd [3]: 72 nM
